# Data reported in paper PMC2932838 (Biochemistry, 2010).
# Read-outs that look alike come from different tables or passages of the source.
# T1: Biotinylated human α2-antiplasmin (Asn-α2-AP form) (human, UniProt P08697 40-491, biotin (EZ-Link Sulfo-NHS-Biotinylation Kit), sites not stated)
# T1 sequence (looked up): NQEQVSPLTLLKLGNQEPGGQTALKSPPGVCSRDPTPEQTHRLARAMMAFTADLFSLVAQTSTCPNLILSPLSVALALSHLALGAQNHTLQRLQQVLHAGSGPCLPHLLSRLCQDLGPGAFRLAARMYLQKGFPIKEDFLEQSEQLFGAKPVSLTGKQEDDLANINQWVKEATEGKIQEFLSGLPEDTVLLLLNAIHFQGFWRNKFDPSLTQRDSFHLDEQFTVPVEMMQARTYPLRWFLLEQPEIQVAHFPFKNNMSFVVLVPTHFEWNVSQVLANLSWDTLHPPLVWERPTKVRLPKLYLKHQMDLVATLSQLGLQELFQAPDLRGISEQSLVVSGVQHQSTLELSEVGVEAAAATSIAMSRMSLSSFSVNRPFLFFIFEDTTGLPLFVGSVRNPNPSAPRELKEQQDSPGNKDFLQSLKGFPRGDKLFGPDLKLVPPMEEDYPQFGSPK
# B1: Fibrin-derived D-D fragment (domain or fragment)
# chain 1: VSEDLRSRIEVLKRKVIEKVQHIQLLQKNVRAQLVDMKRLEVDIDIKIRSCRGSCSRALAREVDLKDYEDQQKQLEQVIAKDLLPSR
# chain 2: DNENVVNEYSSELEKHQLYIDETVNSNIPTNLRVLRSILENLRSKIQKLESDVSAQMEYCRTPCTVSCNIPVVSGKECEEIIRKGGETSEMYLIQPDSSVKPYRVYCDMNTENGGWTVIQNRQDGSVDFGRKWDPYKQGFGNVATNTDGKNYCGLPGEYWLGNDKISQLTRMGPTELLIEMEDWKGDKVKAHYGGFTVQNEANKYQISVNKYRGTAGNALMDGASQLMGENRTMTIHNGMFFSTYDRDNDGWLTSDPRKQCSKEDGGGWWYNRCHAANPNGRYYWGGQYTWDMAKHGTDDGVVWMNWKGSWYSMRKMSMKIRPFFPQQ
# chain 3: KMLEEIMKYEASILTHDSSIRYLQEIYNSNNQKIVNLKEKVAQLEAQCQEPCKDTVQIHDITGKDCQDIANKGAKQSGLYFIKPLKANQQFLVYCEIDGSGNGWTVFQKRLDGSVDFKKNWIQYKEGFGHLSPTGTTEFWLGNEKIHLISTQSAIPYALRVELEDWNGRTSTADYAMFKVGPEADKYRLTYAYFAGGDAGDAFDGFDFGDDPSDKFFTSHNGMQFSTWDNDNDKFEGNCAEQDGSGWWMNKCHAGHLNGVYYQGGTYSKASTPNGYDNGIIWATWKTRWYSMKKTTMKIIPFNRLTIGEGQQHHLGGAK
# modifications: covalent γ-γ cross-linking between the D regions
# Experiments:
# Test in all cases: ELISA
# [1] = target: T1, Biotinylated human α2-antiplasmin …
# [2] = target: T1, Biotinylated human α2-antiplasmin …; remark: listed apart in the source
# [3] = target: T1, Biotinylated human α2-antiplasmin …; remark: listed apart in the source
# [4] = target: T1, Biotinylated human α2-antiplasmin …; remark: listed apart in the source
binder,measurement,setting,value
B1,Kd,[1],5.5 nM
same,Kd,[2],105 nM
same,Kd,[3],94 nM
same,Kd,[4],98 nM
